What was measured:
[1] = Intranasal absorption of insulin solutions in anaesthetised rats: blood glucose; format: in vivo, rat (male Wistar); details: phosphate buffer pH 7.3; for Blood Glucose Levels: 120 minutes after intranasal administration, 16.7 IU/kg insulin, level at administration about 3.5 to 4.0
Description: A rat in vivo experimental model, modified from that originally described by Hirai et al., Int. […] Male Wistar rats (Bantin and Kingman) of approximate weight 200-250 g, fasted overnight for about 20 hours, are anesthetized by i.p. injection of 80 mg/kg pentobarbitone sodium (60 mg/ml Sagatal™, May and Baker) with further i.p. injections of 0.05 ml when necessary to maintain a suitable level of anaesthesia. The rats are tracheotomized, the esophagus sealed and the carotid artery and jugular vein cannulated.
The DEAE-dextran used in these experiments has a molecular weight of 500,000.
This will give the same end solutions. […] An insulin solution containing the Laureth-9 enhancer system was prepared in a similar way.
A volume of 20 μl was administered.
Blood samples of 0.2 ml were collected in Fluoride oxalate tubes from the carotid artery at 10 and 5 min. prior to the insulin administration and at 5, 15, 30, 45, 60, 90, 120, 180, 240 and 300 min. post-administration. The samples were kept for a short time on crushed ice until analyzed on a Yellow Springs 23 AM glucose analyser by the glucose oxidase method.

[2] = Effect of pH on insulin/DEAE-dextran solutions (pH and appearance); format: physicochemical
Description: Solutions containing DEAE-Dextran 1% w/v and Na-Insulin 167 IU/ml were prepared, separately and combined, in phosphate buffer (pH 7.3) and their pH measured using a Gallenkamp pH stick. The appearance of each solution was noted. The effect of addition of 1M sodium hydroxide solution (NaOH) or 0.1M hydrochloric acid (HCl) was determined.

## Insulin alone: semisynthetic human Na-insulin, 167 IU/ml in phosphate buffer
[1]
  Blood Glucose Levels: ~5.1 mmol/L
[1]; listed as insulin solution alone
  Blood Glucose Levels: about 5 mmol/l
[1]; intranasal
  effect on blood glucose level (in words): does not significantly lower the blood glucose level
[2]; 0.1M HCl
  pH at which solution became turbid on addition of acid: 6.65
  pH at which solution cleared / was clear on addition of acid: 4.14
[2]; 1.0M NaOH
  appearance on addition of 1.0M NaOH: no effect on solution appearance which remained clear
[2]; DEAE-dextran 1% w/v and/or Na-insulin 167 IU/ml in phosphate buffer (pH 7.3)
  pH of solution: 7.38
[2]; as prepared in phosphate buffer, no acid or base added
  appearance of solution: clear
